From publication PMC6712278, “Mouse Gut Microbiome-Encoded β-Glucuronidases Identified Using Metagenome Analysis Guided by Protein Structure” (mSystems, 2019)

Tests used:
BoGUS L2 = system: T1, BoGUS L2; assay: p-nitrophenol release, absorbance […] nm, Michaelis-Menten fit; format: biochemical, Bacteroides ovatus; conditions: 50 mM HEPES, 50 mM NaCl, pH 6.5, 37°C
T1 construct: gene GUS; GH2, loop 2 class

[1] = system: O=C(O)[C@H]1O[C@@H](Oc2ccc([N+](=O)[O-])cc2)[C@H](O)[C@@H](O)[C@@H]1O; assay: purified protein; conditions: 37°C, at the enzyme's optimal pH (not given)
purified protein = substrate: O=C(O)[C@H]1O[C@@H](Oc2ccc([N+](=O)[O-])cc2)[C@H](O)[C@@H](O)[C@@H]1O; assay: purified protein; format: biochemical, Bacteroides uniformis; conditions: 37°C, at the enzyme's optimal pH (not given)

## O=C(O)[C@H]1O[C@@H](Oc2ccc([N+](=O)[O-])cc2)[C@H](O)[C@@H](O)[C@@H]1O [PNPG, p-nitrophenyl-glucuronide]
BoGUS L2
  Km: 930 ± 70 µM

## BfGUS mL1 (Bacteroides fragilis NCTC 9343)
[1]
  Km: 460 ± 60 µM
  kcat: 23 ± 1 s⁻¹

B1: BuGUS L2 (Bacteroides uniformis str. 3978 T3 ii) (protein)
chain: QRQTQTINDSWKFLKGECTAAADSAFDDSKWTSIHLPHTWNTDAYTEKDYYRGTGWYRRQLTLPQGWKEKQIILRLDAAGKSATIYINGKNVGEHAGGYTACSFNITPFLSFDTPNTLAVCVDNARQDIAPISGDFTFFGGIYRDVWLTAVPNQHFNLTNHGSDGLFISTPQVSEEQATLSIRGEVKNDAPEKATLELTHTIYRPDGTLLQTLKKNIQLKAGETYAFSNEATPVLKPELWTPETPRLYRVETTLRNRKTKTLLDQSNHYTAFRWFRFDGDEGFFLNGKPYKLRGICRHQDQKPIGPALTDEMHRRDFLLMKEMGANFIRISHYPQDDALLEMCDKLGMLAWEEIPIIDIVPNTPGYGDNCERNLREMIRQHYNHPSIITWGYMNEILLVTQRKYKTEAELKPVLERTLALANRLERVLKEEDSTRISTMAFHGSNSYNETGLSKITDIVGWNLYQGWYGGDLTGFEKFLAQQHQNHPTHPMIVSEYGAGSDKRLHSLHPRAFDFSIEYQQKYLEHYLPVLEDTPYICGGTHWNFIDFSSALRDESMPRINNKGLVYADRTPKDVYHYYQAAWRKDIPVLHIASRDWTDRAGVQQGNAPVYLPVKIYTNLSEVELFIDGISLGKQKTENYTATFEVPFSNRNPFLFAQGNYQGKTVQDGLRINFTPIPACLDANNLKGLELAVNVGSQCFFTSDESQLTWLPDQPYAAGSWGYIGGKEGTAQTEIQNTADGPLFQTLRNEIEGYRFDAPQGVYEIELLFTDIFRRNAGIAYQLDRNGQQENRESTFGISINGEVVEESLSPCKESGYFRALRKKYYITNDKEYIDIRFHSTSGTCFLNGIKLRNIY
notes: GH2, loop 2 class
Purified protein
  Km: 520 ± 60 µM
  kcat: 24 ± 1 s⁻¹
